Values quoted from earlier work as cited in PMC11603612.

Experiments:
Asp129 = Asp129 (UniProt position 112, EEQNNDALSPA)
Asp145 = Asp145 (UniProt position 128, AEHNLDASAIK)
Asp162 = Asp162 (UniProt position 145, RLTREDVEKHL)
Glu141 = Glu141 (UniProt position 124, RRLLAEHNLDA)
Glu161 = Glu161 (UniProt position 144, GRLTREDVEKH)
Glu164 = Glu164 (UniProt position 147, TREDVEKHLAK)
His142 = His142 (UniProt position 125, RLLAEHNLDAS)
His166 = His166 (UniProt position 149, EDVEKHLAKAP)
Asp23 = Asp23 (UniProt position 23, IKNVADGYANN)
Asp8 [1] = target: Asp8 (UniProt position 8, VIFLKDVKGKG)
Glu17 = Glu17 (UniProt position 17, KGKKGEIKNVA)
Glu38 = Glu38 (UniProt position 38, QGLAIEATPAN)
Glu48 [2] = target: Glu48 (UniProt position 48, NLKALEAQKQK)
Glu54 = Glu54 (UniProt position 54, AQKQKEQRQAA)
Asp121 = Asp121 (UniProt position 147, VPVHFDASV--)
Asp14 = Asp14 (UniProt position 40, ERQHMDSSTSA)
Asp38 = Asp38 (UniProt position 64, RNLTKDRCKPV)
Asp53 = Asp53 (UniProt position 79, HESLADVQAVC)
Asp83 = Asp83 (UniProt position 109, TMSITDCRETG)
Glu111 = Glu111 (UniProt position 137, IIVACEGNPYV)
Glu2 = Glu2 (UniProt position 28, PSLGKETAAAK)
Glu49 = Glu49 (UniProt position 75, NTFVHESLADV)
Glu86 = Glu86 (UniProt position 112, ITDCRETGSSK)
Glu9 = Glu9 (UniProt position 35, AAAKFERQHMD)
His105 = His105 (UniProt position 131, TQANKHIIVAC)
His119 = His119 (UniProt position 145, PYVPVHFDASV)
His12 = His12 (UniProt position 38, KFERQHMDSST)
His48 = His48 (UniProt position 74, VNTFVHESLAD)
Asp10 = Asp10 (UniProt position 10, VEIFTDGSCLG)
Asp108 = Asp108 (UniProt position 108, LWQRLDAALGQ)
Asp134 = Asp134 (UniProt position 134, ENERCDELARA)
Asp70 = Asp70 (UniProt position 70, VILSTDSQYVR)
Asp94 = Asp94 (UniProt position 94, GWKTADKKPVK)
Glu119 = Glu119 (UniProt position 119, HQIKWEWVKGH)
Glu129 [3] = target: Glu129 (UniProt position 129, HAGHPENERCD)
Glu131 = Glu131 (UniProt position 131, GHPENERCDEL)
Glu135 [4] = target: Glu135 (UniProt position 135, NERCDELARAA)
Glu147 = Glu147 (UniProt position 147, MNPTLEDTGYQ)
Glu154 = Glu154 (UniProt position 154, TGYQVEV----)
Glu32 = Glu32 (UniProt position 32, RYRGREKTFSA)
Glu48 [5] = target: Glu48 (UniProt position 48, TNNRMELMAAI)
Glu57 [6] = target: Glu57 (UniProt position 57, AIVALEALKEH)
Glu6 [7] = target: Glu6 (UniProt position 6, MLKQVEIFTDG)
Glu61 = Glu61 (UniProt position 61, LEALKEHCEVI)
Glu64 = Glu64 (UniProt position 64, LKEHCEVILST)
His124 = His124 (UniProt position 124, EWVKGHAGHPE)
His127 = His127 (UniProt position 127, KGHAGHPENER)
His62 = His62 (UniProt position 62, EALKEHCEVIL)
Asp19 = Asp19 (UniProt position 101, LIKAIDGDTVK)
Asp21 = Asp21 (UniProt position 103, KAIDGDTVKLM)
Asp40 = Asp40 (UniProt position 122, RLLLVDTPETK)
Asp95 = Asp95 (UniProt position 177, AYIYADGKMVN)
Glu10 = Glu10 (UniProt position 92, KKLHKEPATLI)
Glu101 = Glu101 (UniProt position 183, GKMVNEALVRQ)
Glu122 = Glu122 (UniProt position 204, PNNTHEQHLRK)
Glu129 [8] = target: Glu129 (UniProt position 211, HLRKSEAQAKK)
Glu135 [9] = target: Glu135 (UniProt position 217, AQAKKEKLNIW)
Glu43 = Glu43 (UniProt position 125, LVDTPETKHPK)
Glu52 = Glu52 (UniProt position 134, PKKGVEKYGPE)
Glu57 [10] = target: Glu57 (UniProt position 139, EKYGPEASAFT)
Glu67 = Glu67 (UniProt position 149, TKKMVENAKKI)
Glu73 = Glu73 (UniProt position 155, NAKKIEVEFDK)
Glu75 = Glu75 (UniProt position 157, KKIEVEFDKGQ)
His121 = His121 (UniProt position 203, KPNNTHEQHLR)
His8 = His8 (UniProt position 90, STKKLHKEPAT)
Asp16 = Asp16 (UniProt position 16, FQEALDAAGDK)
Asp20 = Asp20 (UniProt position 20, LDAAGDKLVVV)
Asp58 = Asp58 (UniProt position 58, IFLEVDVDDCQ)
Asp60 = Asp60 (UniProt position 60, LEVDVDDCQDV)
Asp61 = Asp61 (UniProt position 61, EVDVDDCQDVA)
Asp64 = Asp64 (UniProt position 64, VDDCQDVASEC)
Glu103 = Glu103 (UniProt position 103, EATINELV---)
Glu13 = Glu13 (UniProt position 13, KTAFQEALDAA)
Glu47 = Glu47 (UniProt position 47, FHSLSEKYSNV)
Glu56 = Glu56 (UniProt position 56, NVIFLEVDVDD)
Glu6 [11] = target: Glu6 (UniProt position 6, MVKQIESKTAF)
Glu68 = Glu68 (UniProt position 68, QDVASECEVKC)
Glu70 = Glu70 (UniProt position 70, VASECEVKCMP)
Glu88 = Glu88 (UniProt position 88, GQKVGEFSGAN)
Glu95 = Glu95 (UniProt position 95, SGANKEKLEAT)
Glu98 = Glu98 (UniProt position 98, NKEKLEATINE)
Asp8 [12] = system: Asp8
Asp44 = Asp44 (UniProt position 794, ENHLSDEDFKA)
Asp46 = Asp46 (UniProt position 796, HLSDEDFKAVF)
Glu45 = Glu45 (UniProt position 795, NHLSDEDFKAV)
Glu72 = Glu72 (UniProt position 822, QNLKKEKGLF-)
Asp107 = Asp107 (UniProt position 134, DGGTYDIYTTT)
Asp12 = Asp12 (UniProt position 39, WQNWTDGGGIV)
Asp120 = Asp120 (UniProt position 147, NAPSIDGDRTT)
Asp122 = Asp122 (UniProt position 149, PSIDGDRTTFT)
Asp5 = Asp5 (UniProt position 32, SAASTDYWQNW)
Glu79 = Glu79 (UniProt position 106, RSPLIEYYVVD)
His157 = His157 (UniProt position 184, NAWKSHGMNLG)

BBL (peripheral subunit-binding domain of 2-oxoglutarate dehydrogenase E2) (Escherichia coli (inferred))
pKa (Asp129): 3.9
pKa (Asp145): 3.7
pKa (Asp162): 3.2
pKa (Glu141): 4.5
pKa (Glu161): 3.7
pKa (Glu164): 4.5
pKa (His142): 6.5
pKa (His166): 5.4

N-terminal domain of ribosomal protein L9 (NTL / NTL9) (Geobacillus stearothermophilus (inferred))
pKa (Asp23): 3.1
pKa (Asp8 [1]): 3
pKa (Glu17): 3.6
pKa (Glu38): 4
pKa (Glu48 [2]): 4.2
pKa (Glu54): 4.2

Ribonuclease A (RNaseA) (Bos taurus (inferred))
pKa (Asp121): 3.1
pKa (Asp14): 2
pKa (Asp38): 3.5
pKa (Asp53): 3.9
pKa (Asp83): 3.5
pKa (Glu111): 3.6
pKa (Glu2): 2.8
pKa (Glu49): 4.7
pKa (Glu86): 4.1
pKa (Glu9): 4
pKa (His105): 6.7
pKa (His119): 6.1
pKa (His12): 6.2
pKa (His48): 6

Ribonuclease HI (RNaseH) (Escherichia coli)
pKa (Asp10): 6.1
pKa (Asp108): 3.2
pKa (Asp134): 4.1
pKa (Asp70): 2.6
pKa (Asp94): 3.2
pKa (Glu119): 4.1
pKa (Glu129 [3]): 3.6
pKa (Glu131): 4.3
pKa (Glu135 [4]): 4.3
pKa (Glu147): 4.2
pKa (Glu154): 4.4
pKa (Glu32): 3.6
pKa (Glu48 [5]): 4.4
pKa (Glu57 [6]): 3.2
pKa (Glu6 [7]): 4.5
pKa (Glu61): 3.9
pKa (Glu64): 4.4
pKa (His124): 7.1
pKa (His127): 7.9
pKa (His62): 7

Staphylococcal nuclease (SNase) (Staphylococcus aureus (inferred))
pKa (Asp19): 2.2
pKa (Asp21): 6.5
pKa (Asp40): 3.9
pKa (Asp95): 2.2
pKa (Glu10): 2.8
pKa (Glu101): 3.8
pKa (Glu122): 3.9
pKa (Glu129 [8]): 3.8
pKa (Glu135 [9]): 3.8
pKa (Glu43): 4.3
pKa (Glu52): 3.9
pKa (Glu57 [10]): 3.5
pKa (Glu67): 3.8
pKa (Glu73): 3.3
pKa (Glu75): 3.3
pKa (His121): 5.2
pKa (His8): 6.5

Thioredoxin (residue set of human thioredoxin) (Homo sapiens (inferred from residue set; not stated))
pKa (Asp16): 4
pKa (Asp20): 3.8
pKa (Asp58): 5.3
pKa (Asp60): 2.8
pKa (Asp61): 4.2
pKa (Asp64): 3.2
pKa (Glu103): 4.4
pKa (Glu13): 4.4
pKa (Glu47): 4.1
pKa (Glu56): 5.1
pKa (Glu6 [11]): 4.8
pKa (Glu68): 4.9
pKa (Glu70): 4.6
pKa (Glu88): 3.7
pKa (Glu95): 4.1
pKa (Glu98): 3.9

Turkey ovomucoid third domain (OMTKY3) (Meleagris gallopavo (inferred))
pKa (Asp27): 2.3
pKa (Asp8 [12]): 2.7
pKa (Glu11): 4.1
pKa (Glu20): 3.2
pKa (Glu44): 4.8
pKa (His53): 7.5

Villin headpiece subdomain HP36 (Gallus gallus (inferred))
pKa (Asp44): 3.1
pKa (Asp46): 3.5
pKa (Glu45): 4
pKa (Glu72): 4.4

Xylanase (family 11 endo-1,4-beta-xylanase) (Bacillus circulans (inferred))
pKa (Asp107): 2.7
pKa (Asp12): 2.5
pKa (Asp120): 3.2
pKa (Asp122): 3.6
pKa (Asp5): 3
pKa (Glu79): 4.6
pKa (His157): 6.5
